Drawing on patent US20240294635A1, this text covers MFI for one substance.

Experiment [1] deals with CD47 on the red cell surface (Homo sapiens (Human)) (UniProt Q08722). As to the kind of experiment: flow cytometry on fixed red cells, antibody 10 µg/mL.
The target is the same in experiment [2]. As to the kind of experiment: flow cytometry on fixed red cells, antibody 1 µg/mL.

With IgG4 (antibody), the MFI in experiment [1] is 484 MFI; in experiment [2] it was 449 MFI.
